Laboratory results as given in patent US10501552B2, “Multivalent molecules comprising DR5-binding domains” (MacroGenics, Inc., priority 2015, dated 2019).

B1: DR5 mAb 2: murine anti-human DR5 monoclonal antibody; VL SEQ ID NO:13, VH SEQ ID NO:18 (antibody, listed as Mus musculus, V domains shown)
VH: KVQLQQSGAELVKPGASVKLSCKASGYTFTEYILHWVKQKSGQGLEWIGWFYPGNNNIKYNEKFKDKATLTADKSSSTVYMELSRLTSEDSAVYFCARHEQGPGYFDYWGQGTTLTVSS
VL: DIVMTQSHKFMSTSVGDRVSITCKASQDVNTAVAWYQQKPGQSPKLLIYWASTRHTGVPDRFTGSGSGTDYTLTIKSVQAEDLTLYYCQQHYITPWTFGGGTKLEIK
modifications: (1)..(119) Anti-DR5 Antibody mAb 2 Heavy Chain Variable Region; (1)..(107) Anti-DR5 Antibody mAb 2 Light Chain Variable Region
B2: DR5 mAb 1: anti-human DR5 monoclonal antibody; VL SEQ ID NO:3, VH SEQ ID NO:8 (antibody, listed as Mus musculus, V domains shown)
VH: EVKFLESGGGLVQPGGSLKLSCVASGFDFSRYWMSWVRQAPGKGLEWIGEINPDSNTINYTPSLKDKFIISRDNAKNTLYLQMTKVRSEDTALYYCTRRAYYGNPAWFAYWGQGTLVTVSS
VL: DIVLTQSPASLAVSLGQRATISCRASKSVSSSGYSYMHWYQQKPGQPPKVLIFLSSNLDSGVPARFSGSGSGTDFTLNIHPVEDGDAATYYCQHSRDLPPTFGGGTKLEIK
modifications: (1)..(121) Anti-DR5 Antibody mAb 1 Heavy Chain Variable Region; (1)..(111) Anti-DR5 Antibody mAb 1 Light Chain Variable Region

Experiments:
A549 = assay: […]-GLO cell viability assay with vorinostat; format: cell-based, human; conditions: A549 (Lung); 1 μg/ml + 10 μM Vorinostat
[1] = target: cynomolgus monkey DR5 (His-tagged); assay: Biacore analysis of binding kinetics; set-up: ka / kd: unit not given here; conditions: tested as DR5×CD3 mAb 2 diabody
Procedure: Bispecific DR5×CD3 diabodies were incubated with His-tagged DR5 and the kinetics of binding was determined via Biacore analysis. […] FIG. 6, Panels A-D show the results for human DR5. FIG. 6, Panels E-H show the results for cynomolgus monkey DR5.

Calu3 = assay: […]-GLO cell viability assay with vorinostat; format: cell-based; conditions: Calu3 (Lung); 1 μg/ml + 1 μM Vorinostat
[2] = system: cell lines obtained from ATCC; assay: MTS cell proliferation assay, panel of cell lines; format: cell-based; conditions: for inhibition of cell growth, antibody alone: any of cell lines examined, not cross-linked; for cytotoxicity when cross-linked: cross-linked by goat anti-mouse IgG Fc antibody
Procedure: (§1) Cell lines obtained from ATCC were cultured under standard tissue culture conditions. Each cell line was plated at ˜2×10^4 cells/well (in 96-well plates), and incubated overnight in F12/DMEM media supplemented with 10% FBS. […] Cell viability was determined using Promega CellTiter 96® AQeous Non-Radioactive Cell Proliferation Assay (Cat # G5430) essentially as described in the manufacturer's instructions to assay the amount of soluble formazan produced by cellular reduction of the MTS, which is a measure of the number of viable cells in the culture. Briefly, MTS/PMS regent was added to the wells and the absorbance at 490 nm (referenced at […]) was read in a Molecular Devices ThermoMax microplate reader.
(§2) Similar studies were performed over a range of anti-DR5 mAb concentrations from ˜10^−3 nM to ˜10^2 nM. The data for COLO205 cells is provided in FIG. 13, and are representative of cell lines sensitive to the antibodies of the invention.
(§3) The cytotoxicity of tetravalent DR5-Binding Molecules of the present invention was investigated. […] His-tagged TRAIL (R&D systems) was used as a positive control.

MCF7 = assay: […]-GLO cell viability assay with vorinostat; format: cell-based; conditions: MCF7 (Breast); 1 μg/ml + 10 μM Vorinostat
PC3 [3] = assay: […]-GLO cell viability assay with vorinostat; format: cell-based; conditions: PC3 (Prostate); 1 μg/ml + 1 μM Vorinostat
[4] = system: normal tissue (colon, liver, lung, pancreas, kidney, heart); assay: tissue staining with labeled molecule; format: binding; conditions: 5 μg/mL
Source text: (§4) The results presented in FIGS. 15A-15B, 16, and Table 10, thus indicate that a tetravalent DR5-Binding Molecule (bispecific for two epitopes of DR5) was capable of specifically binding to cancer cells.

colon cancer tissue = assay: tissue staining with labeled molecule; format: binding; conditions: 5 μg/mL
Source text: as §4

lung cancer tissue = assay: tissue staining with labeled molecule; format: binding; conditions: 5 μg/mL
Source text: as §4

NCI-N87 = assay: […]-GLO cell viability assay with vorinostat; format: cell-based; conditions: NCI-N87 (Stomach); 1 μg/ml + 1 μM Vorinostat
DR5-Fc fusion = assay: binding to immobilized DR5-Fc fusion in presence of TRAIL; set-up: species or system human; conditions: for amount of immobilized biotinylated antibody: 2 μg/mL biotinylated, 1 μg/mL DR5-Fc fusion coat
Procedure: (§5) The amount of immobilized biotinylated antibody was assessed.

22RV1 = assay: […]-GLO cell viability assay with vorinostat; format: cell-based; conditions: 22RV1 (Prostate); 1 μg/ml + 10 μM Vorinostat
histidine tagged TRAIL = histidine tagged TRAIL (Homo sapiens, UniProt P50591); assay: binding to TRAIL-His coat; conditions: 2 μg/mL biotinylated; 1 μg/mL TRAIL-His coat
Procedure: as §5

DU145 = assay: […]-GLO cell viability assay with vorinostat; format: cell-based, human; conditions: DU145 (Prostate); 1 μg/ml + 10 μM Vorinostat
[5] = system: target tumor cells (A549, SKMES, DU145, A375, SKBR3, JIMT); assay: LDH release cytotoxicity with PBMC, comparison of DR5×CD3 diabodies; format: cell-based, human; conditions: VL and VH Domains tested as DR5×CD3 mAb 2 diabodies, 24 hours, 20:1
Procedure: In order to make such a comparison, a bispecific DR5×CD3 diabody having the structure shown in FIG. 1 containing the VL and VH Domains of these anti-DR5 antibodies and the VL and VH Domains of CD3 mAb 2 were prepared essentially as described above. The first and second The prepared diabodies were designated “DR5 mAb 1×CD3 mAb 2”; “DR5 mAb 2×CD3 mAb 2”; “DR5 mAb 3×CD3 mAb 2”; and “DR5 mAb 4×CD3 mAb 2”.
Target tumor cells were incubated with one of these diabodies or with the control diabody (4-4-20×CD3 mAb 2) in the presence of peripheral blood mononuclear cells (PBMC) and target tumor cells for 24 hours at an effector to target cell ratio of 20:1. The percentage cytotoxicity was determined by measuring the release of lactate dehydrogenase (LDH) into the media by damaged cells.
The employed target tumor cells were: A549 adenocarcinomic human alveolar basal epithelial cells (FIG. 10A), SKMES human lung cancer cells (FIG. 10B), DU145 human prostate cancer cells (FIG. 10C), A375 human malignant melanoma cells (FIG. 10D), SKBR3 human HER2-overexpressing breast carcinoma cells (FIG. 10E), and JIMT human breast carcinoma cells (FIG. 10F).

SKBR3 = assay: […]-GLO cell viability assay with vorinostat; format: cell-based, human; conditions: SKBR3 (Breast); 1 μg/ml + 1 μM Vorinostat
Hs746T = assay: […]-GLO cell viability assay with vorinostat; format: cell-based; conditions: Hs746T (Stomach); 1 μg/ml + 10 μM Vorinostat
LNCap = assay: […]-GLO cell viability assay with vorinostat; format: cell-based, human; conditions: LNCap (Prostate); 1 μg/ml + 10 μM Vorinostat
SKOV3 = assay: […]-GLO cell viability assay with vorinostat; format: cell-based; conditions: SKOV3 (Ovary); 1 μg/ml + 1 μM Vorinostat
786O = assay: […]-GLO cell viability assay with vorinostat; format: cell-based; conditions: 786O (Kidney); 1 μg/ml + 1 μM Vorinostat
PC3 [6] = assay: MTS cell proliferation assay; format: cell-based; conditions: PC3 (Prostate); 1 μg/ml, ±10 μg/ml αmFc; two days
Procedure: as §1, §2, §3
Similar studies were performed over a range of anti-DR5 mAb concentrations from ˜10^−3 nM to ˜10^2 nM.

MDA-MB-175VII = assay: […]-GLO cell viability assay with vorinostat; format: cell-based; conditions: MDA-MB-175VII (Breast); 1 μg/ml + 1 μM Vorinostat

DR5-Fc fusion, sequence (as listed by the source): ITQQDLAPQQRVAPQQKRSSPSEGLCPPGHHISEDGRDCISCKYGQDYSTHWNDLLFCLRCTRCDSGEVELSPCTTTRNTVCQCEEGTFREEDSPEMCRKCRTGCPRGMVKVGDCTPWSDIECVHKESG
histidine tagged TRAIL, sequence (P50591 114-281 limits assumed): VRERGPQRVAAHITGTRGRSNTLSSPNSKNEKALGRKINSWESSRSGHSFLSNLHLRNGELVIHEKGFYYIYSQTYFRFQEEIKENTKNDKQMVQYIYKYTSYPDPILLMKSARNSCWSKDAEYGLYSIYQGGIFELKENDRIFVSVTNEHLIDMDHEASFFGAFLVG

Molecule | Net Gain (Average % Growth Inhibition) (A549) [%] | Kd [1] [nM] | ka [1] | kd [1] | Net Gain (Average % Growth Inhibition) (Calu3) [%] | inhibition of cell growth, antibody alone [2] | cytotoxicity when cross-linked [2] | Net Gain (Average % Growth Inhibition) (MCF7) [%] | Net Gain (Average % Growth Inhibition) (PC3 [3]) [%] | labeling of cells of normal tissue [4] | labeling of cells of colon cancer tissue (colon cancer tissue) | labeling of cells of lung cancer tissue (lung cancer tissue) | Net Gain (Average % Growth Inhibition) (NCI-N87) [%] | effect of histidine tagged TRAIL on amount bound to immobilized DR5-Fc (DR5-Fc fusion) | amount of immobilized biotinylated antibody (DR5-Fc fusion; 20 μg/mL TRAIL-His) | amount of immobilized biotinylated antibody (DR5-Fc fusion; Buffer) | Net Gain (Average % Growth Inhibition) (22RV1) [%] | amount of immobilized biotinylated antibody (histidine tagged TRAIL) | Net Gain (Average % Growth Inhibition) (DU145) [%] | potency in inducing cytotoxicity versus reference DR5 mAbs [5] | further results
B1 | 6.48 | 0.42 | 2.4 × 10^5 | 1.0 × 10^−4 | 0.11 | neither DR5 mAb 1, nor DR5 mAb 2 alone is capable of inhibiting cell growth | potent cytotoxicity | 5.00 | 1.59 | failed to label | strongly label | strongly label | 0.36 | not affected | 2.052 | 2.052 | 7.49 | 0.008 | 4.18 | more potent | Net Gain (Average % Growth Inhibition) (SKBR3): 0.69%; Net Gain (Average % Growth Inhibition) (Hs746T): 0.20%; Net Gain (Average % Growth Inhibition) (LNCap): 4.49%; Net Gain (Average % Growth Inhibition) (SKOV3): 1.75%; Net Gain (Average % Growth Inhibition) (786O): 2.33%; % Inhibition (Average) (PC3 [6]): 2.19%; Net Gain (Average % Growth Inhibition) (MDA-MB-175VII): 0.95%
B2 | 6.48 | 32.5 | 4.0 × 10^6 | 1.3 × 10^−1 | 0.11 | neither DR5 mAb 1, nor DR5 mAb 2 alone is capable of inhibiting cell growth | potent cytotoxicity | 4.55 | 1.59 | failed to label | strongly label | strongly label | 0.12 | not affected | 1.939 | 2.118 | 7.49 | 0.007 | 4.18 | more potent | Net Gain (Average % Growth Inhibition) (SKBR3): 0.69%; Net Gain (Average % Growth Inhibition) (Hs746T): 0.20%; Net Gain (Average % Growth Inhibition) (LNCap): 3.81%; Net Gain (Average % Growth Inhibition) (SKOV3): 1.75%; Net Gain (Average % Growth Inhibition) (786O): 0.64%; % Inhibition (Average) (PC3 [6]): 2.79%; Net Gain (Average % Growth Inhibition) (MDA-MB-175VII): 0.95%
